Test results: publication PMC9992855, “Functional polyamine metabolic enzymes and pathways encoded by the virosphere” (Proceedings of the National Academy of Sciences of the …, 2023)

Tested on: N=C(N)NCCC[C@H](N)C(=O)O
Experiment: purified protein
Settings: 27 °C
From the text: decarboxylase activity assay on Ca. Fonsibacter ubiquis "ODC" (ODC/ADC)

Substance: Ca. Fonsibacter ubiquis "ODC" (ODC/ADC) (unidentified)
- Km: 1300 ± 120 µM
- kcat: 2.2 ± 0.13 s⁻¹
- kcat/Km: 1700 ± 91 M⁻¹ s⁻¹
